Laboratory results from the RNAGym collection of RNA variant scans (doi:10.7554/elife.80360).

B1: Hammerhead Ribozyme (parent)
chain: ACCGGAUGUGCUUUCCGGUCUGAUGAGUCCGUGAGGACGAAACAG

Variants of: B1
Experiment: self-cleavage, relative activity (ratio to wild type); higher = more cleavage; co-transcriptional

Variant	self-cleavage
U9A C11G	1.57
G35C A42U	0.324
C2A U28C	0.417
A23U C43U	0.433
A37G A42G	0.264
C20G U21C	0.305
U12C C16A	0.908
C2A U13A	1.08
G27U A42G	0.261
G10A U13G	0.956
U9G A41C	0.294
C15G G17C	0.323
C2G C20G	0.297
A23C	0.547
G4U U7C	0.361
G4U U7G	0.381
U9G U14A	0.916
U9G A34G	1.04
C11G A41U	0.382
C20U C29A	0.296
C20U G22U	0.341
G35C A37U	0.517
A42C A44U	0.351
G4C U24C	0.631

Variant	self-cleavage
G22C G27C	0.311
A26U A37U	0.545
U24A A42U	0.354
G10U G39C	0.379
U12G U24G	0.795
A6G C15A	0.707
C3G G4U	0.322
U14C C15U	0.996
U24C G39A	0.337
C20A C29G	0.311
A34G C43G	0.471
C16U G35U	0.735
C15U G39A	0.347
U12C G31U	1
A6U G18A	0.34
U32A G35U	0.985
C2U U9A	1.24
G31A U32G	0.529
G31C U32G	0.683
U19A A23U	0.386
G5U G27U	0.366
C38G G39C	0.326
C15A G17C	0.328
A6G A40U	0.247

Variant	self-cleavage
U19G U32G	0.371
G31U A40U	0.399
U19C G39C	0.251
U13C A41U	0.362
U13A U28G	1.4
A6G C29G	0.498
G10A G45A	0.9
G8A U12A	1.09
G5U G8A	0.748
A6U C43U	0.368
A6C A37C	0.475
C20G A23C	0.271
G4U G27A	0.312
U21A	0.687
C2G A37G	0.351
A26G G45A	0.3
A6U G39C	0.294
U7G U32A	1.49
C20A G35C	0.385
U13G U19A	0.301
U9A U28G	0.823
G17A A26U	0.447
C11U U19C	0.484
C2G U12G	0.31

Variant	self-cleavage
C3U C43U	0.492
U12C U13G	0.964
U7A A34U	1.22
C16G G36U	0.314
U9C A34G	0.946
G4U A41C	0.276
U12C A40G	0.329
U13A G33U	1.46
C2A G10A	0.934
G33C A34U	1.33
U24C G45U	0.669
G18C G39A	0.289
G5C A34G	0.74
G5C A34U	0.477
G4U G22U	0.296
G4U G22C	0.345
C2A A42U	0.332
G27A G45C	0.378
U21C G27U	0.361
C11A G39C	0.438
U19C G45A	0.384
G35A A40G	0.37
G5C G45A	0.384
C16U G25C	0.265

Variant	self-cleavage
U12G G31A	1.2
U12G G31C	1.09
G8C A41C	0.312
G36A G45A	0.444
G4A A42U	0.319
U19G C38G	0.354
C16A G25U	0.331
G25A C30U	0.331
G35U G36A	0.525
C11U C30U	0.736
U24C C38A	0.676
C3G U21C	0.413
U7A U19G	0.25
G5U C29U	0.682
U7G U24A	1.4
G8A G18C	0.574
A1C G10U	0.339
G18C C29U	0.506
G22A G25U	0.376
C30G G39C	0.334
C15A G31C	0.807
C3U A40G	0.34
U21A U32G	0.515
G8U A42G	0.367

Variant	self-cleavage
C30U G39A	0.278
C11A G36U	0.762
C11U C38A	0.511
G4U G45A	0.351
A6C C38G	0.427
U14G G17C	0.27
G25C G35A	0.344
G8A A26U	0.899
A1G G4A	0.521
C2G G5A	0.295
C11G A42G	0.303
G8C G17U	0.752
G4C C15A	0.524
U14C A26C	0.371
C15U G36U	0.521
G18A A42G	0.347
G25C G45A	0.302
A1C A6G	0.417
G17U G18C	0.503
C43G G45U	0.835
G8C G45C	0.717
U7A G8A	1.23
U7A G8C	1.21
C20A A41G	0.309

Variant	self-cleavage
C3U A26C	0.394
G18U C38U	0.661
G17A G18A	0.294
C15U G25A	0.366
A1G A34G	1.5
G18C G31C	0.548
U21A A26U	0.356
G4A G33A	0.55
U21C A40U	0.274
A37C	1
U28G A40U	0.323
U24G C38A	0.742
U21G G39A	0.354
G39C A41U	0.305
U13A U21C	0.908
A6U U28A	0.377
C30G A44U	0.367
A1G G39U	0.428
G17A G31U	0.788
U12C C20G	0.324
A6C U12C	0.899
U7A G39A	0.27
U13A A41G	0.311
